These results are taken from publication PMC3534379.

Test [1] concerns the target human CD4 C-terminally fused to the C-terminal fragment of click beetle green (UniProt P01730).
Test [2] addresses ß-TrCP N-terminally fused to the C-terminal fragment of click beetle green (UniProt Q9Y297). Nature of the test: click beetle luciferase complementation assay in living 293T cells. The conditions noted are these: 36 h after transfection, equal amounts of plasmids, D-Luciferin added, read off a plot.
For test [3], the target named is human CD4 C-terminally fused to the C-terminal fragment of click beetle green (UniProt P01730). The test is described as above. The conditions noted are these: read off a plot.
Where [4] appears, read: + ß-TrCPΔF cotransfected (grey bars), parent: est. 20.
The mark [5] stands for this setting: without ß-TrCPΔF (coloured bars), parent: est. 8.
Where [6] appears, read: + ß-TrCPΔF cotransfected (grey bars), parent: est. 14.
[7] abbreviates: without ß-TrCPΔF (coloured bars), parent: est. 13.

Sequence of UniProt Q9Y297 (Q9Y297 whole entry, the tested form may be a part): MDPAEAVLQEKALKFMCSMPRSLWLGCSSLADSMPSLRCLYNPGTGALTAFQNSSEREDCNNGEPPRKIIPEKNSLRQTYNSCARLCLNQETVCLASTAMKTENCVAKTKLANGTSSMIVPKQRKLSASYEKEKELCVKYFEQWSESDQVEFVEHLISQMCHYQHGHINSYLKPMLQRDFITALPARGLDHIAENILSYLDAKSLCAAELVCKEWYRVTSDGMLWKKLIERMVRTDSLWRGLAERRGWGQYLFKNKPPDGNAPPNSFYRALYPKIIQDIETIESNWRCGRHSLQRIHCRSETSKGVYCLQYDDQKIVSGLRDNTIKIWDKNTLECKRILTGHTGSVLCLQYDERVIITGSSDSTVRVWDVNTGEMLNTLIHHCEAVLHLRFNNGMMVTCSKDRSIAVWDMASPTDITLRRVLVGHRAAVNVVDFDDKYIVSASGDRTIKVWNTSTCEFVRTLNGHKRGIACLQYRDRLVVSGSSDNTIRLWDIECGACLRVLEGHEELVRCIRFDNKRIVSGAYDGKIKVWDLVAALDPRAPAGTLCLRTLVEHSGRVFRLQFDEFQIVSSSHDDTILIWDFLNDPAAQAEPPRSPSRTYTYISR

Consider “HIV-1 group N DJO0131 Vpu C-terminally fused to the N-terminal fragment of click beetle green (natural protein)”, for which the reduction in CD4 cell surface expression (293T cells, flow cytometry) in test [1] was found to be 2.8 fold.

Consider “HIV-1 group M NL4-3 Vpu C-terminally fused to the N-terminal fragment of click beetle green G53D”, for which the values for the response (RLU/s x 1.000) in test [2] (parent: est. 6.2), in test [3] (setting [4]) and in test [3] (setting [5]) were 2.2, 22 and 30, respectively.

On to “HIV-1 group N YBF30 Vpu C-terminally fused to the N-terminal fragment of click beetle green (from UniProt O91085) G51D”, for which the response (RLU/s x 1.000) in test [2] (parent: est. 4.7) was determined as 1.3; in test [3] (setting [6]), 12; in test [3] (setting [7]), 18.

As to “HIV-1 group M NL4-3 Vpu C-terminally fused to the N-terminal fragment of click beetle green S52A; S56A”, the response (RLU/s x 1.000) in test [2] (parent: est. 6.2) came to 2.2; in test [3] (setting [4]), 24; in test [3] (setting [5]) it was 29.

As for “HIV-1 group N YBF30 Vpu C-terminally fused to the N-terminal fragment of click beetle green (from UniProt O91085) S52A; S56A”, the response (RLU/s x 1.000) in test [2] (parent: est. 4.7) was found to be 0.9; in test [3] (setting [6]) it was 19; in test [3] (setting [7]), 17.
